How the values were obtained:
Type in all cases: biochemical
[1] = PDE/PME activity of soluble type ENPP proteins (pNP-PP or bis-pNPP degradation); details: 0.2 μg protein, 1 mM pNP-PP (ENPP6 also bis-pNPP), pH 9.6, 37° C., 90 min, FIG. 8
Experimental: (§1) 0.2 μg of the purified soluble type ENPP4 protein was mixed in 90 μL of assay buffer (20 mM HEPES, 140 mM NaCl, 5 mM KCl, 1 mM CaCl2, 1 mM MgCl2, 10 mM Glucose, pH 9.6) and 10 μL of 10 mM p-nitrophenyl phenylphosphonate (pNP-PP, manufactured by Sigma Inc.), and was kept at 37° C. for 90 min and then, absorption of light of 405 nm was measured and thereby, the amount of P-nitrophenol was quantitatively determined and, whether the PDE/PME activity existed or not was examined.
as §1, with “ENPP5” for “ENPP4”, “pNP-PP,” for “p-nitrophenyl phenylphosphonate (pNP-PP, manufactured by Sigma Inc.),”, “p-nitrophenol” for “P-nitrophenol”
as §1, with “ENPP6” for “ENPP4”, “pNP-PP or bis-(p-nitrophenyl)phosphate (bis-pNPP),” for “p-nitrophenyl phenylphosphonate (pNP-PP, manufactured by Sigma Inc.),”, “p-nitrophenol” for “P-nitrophenol”

[2] = NPP/PDE activity of soluble type ENPP proteins (pNP-TMP degradation, 405 nm); details: 1 mM pNP-TMP, pH 9.6, 37° C., 2 hours, absorption at 405 nm
Experimental: 400 mL of the culture supernatant of the cells expressing the soluble type human ENPP4 protein was concentrated at 8 times by using Amicon Ultra-15 (fraction molecular weight 10,000, manufactured by Millipore Inc.). The His-Tag-added protein was affinity-purified by using AKTAexplorer 10S (manufactured by Amersham Biosciences Inc.) and His-Trap column (manufactured by Amersham Biosciences Inc.). Samples in the respective purification steps were subjected to SDS-PAGE according to a predetermined method and then the protein was stained by using Simply-Blue-Stain (manufactured by Invitrogen Inc.). […] 40 μL of each of the respective purification steps and purified soluble type human ENPP4-FLAG-His proteins was mixed with 50 μL of assay buffer (20 mM HEPES, 140 mM NaCl, 5 mM KCl, 1 mM CaCl2, 1 mM MgCl2, 10 mM Glucose, pH 9.6, the method of Voltmeter P. et al., Eur. J. Biochem. 270 (2003) 2971-78 was improved) and 10 μL of 10 mM p-nitrophenyl-Thymidine monophosphate (pNP-TMP, Sigma Inc.), and the mixture was kept at 37° C. for 2 hours and then, absorption of light of 405 nm was measured and thereby, p-nitorphenol, which was a degradation product, was measured and, whether the Nucleotide Pyrophosphatase (NPP)/Phospho-Diesterase (PDE) activity existed or not was examined. […]

[3] = Bivalent cation requirement of soluble type ENPP proteins (PDE/PME activity); details: MgCl2 and CaCl2 1 mM vs no additive vs EDTA 1 mM, pNP-PP, FIG. 9
Experimental: (§2) 0.2 μg of the purified soluble type ENPP4 protein was mixed in 90 μL of assay buffer (20 mM HEPES, 140 mM NaCl, 5 mM KCl, 10 mM Glucose, pH 9.6), 10 μL of 10 mM pNP-PP, and (1) 1 mM final concentration of MgCl2 and CaCl2, (2) no additive, or (3) 1 mM final concentration of EDTA, and then was kept at 37° C. for 90 min and then, absorption of light of 405 nm was measured and thereby, the increase or decrease of the PDE/PME activity by removing bivalent cations was examined.
as §2, with “ENPP5” for “ENPP4”, “examined. […] It has been thought that a certain cation except for calcium and magnesium ions is bonded to the purified soluble type ENPP5 protein because the activity decreases in the EDTA-adding sample and increases in the no-additive sample. […]” for “examined.”

B1: soluble type ENPP4 protein: extracellular region of human ENPP4 with FLAG tag and 6×His tag at the C terminal, expressed in HEK293T cells, purified (protein, UniProt Q9Y6X5 16-407, looked up)
extracellular domain: FRSDSSSSLPPKLLLVSFDGFRADYLKNYEFPHLQNFIKEGVLVEHVKNVFITKTFPNHYSIVTGLYEESHGIVANSMYDAVTKKHFSDSNDKDPFWWNEAVPIWVTNQLQENRSSAAAMWPGTDVPIHDTISSYFMNYNSSVSFEERLNNITMWLNNSNPPVTFATLYWEEPDASGHKYGPEDKENMSRVLKKIDDLIGDLVQRLKMLGLWENLNVIITSDHGMTQCSQDRLINLDSCIDHSYYTLIDLSPVAAILPKINRTEVYNKLKNCSPHMNVYLKEDIPNRFYYQHNDRIQPIILVADEGWTIVLNESSQKLGDHGYDNSLPSMHPFLAAHGPAFHKGYKHSTINIVDIYPMMCHILGLKPHPNNGTFGHTKCLLVDQWCINLPEA
modifications: extracellular domain C-terminal FLAG and 6xHis tags
notes: extracellular region of human ENPP4 with FLAG tag and 6×His tag at the C terminal, expressed in HEK293T cells, purified
With B1 as the molecule, how does the PDE/PME activity [1] read?
The PDE/PME activity was “has the PDE/PME activity”.

What about the NPP/PDE activity [2] of the same molecule?
The NPP/PDE activity was “NPP/PDE activity was detected”.

And the bivalent cation requirement [3]?
The bivalent cation requirement was “does not require bivalent cations”.
